In paper PMC4829420, “The innate immune sensor IFI16 recognizes foreign DNA in the nucleus by scanning along the duplex” (eLife, 2015):

Biological target: the molecule itself
Test: single-molecule fluorescence imaging (TIRF) with intensity analysis; Cy5-labelled IFI16 (3 to 5 nM) supplied under constant flow (20 ul/min) to single-biotinylated lambda dsDNA anchored on a coverslip; number of molecules per cluster from particle intensity against single molecules at 1 nM; 40 mM HEPES pH 7.4, 160 mM KCl, 1 mM EDTA, 2 mM DTT, 10% glycerol, 0.1% Triton-X100, 250 ug/ml BSA; room temperature

B1: Human full-length IFI16 (interferon-inducible protein 16) (natural protein, UniProt Q16666 1-785, looked up)
chain: MGKKYKNIVLLKGLEVINDYHFRMVKSLLSNDLKLNLKMREEYDKIQIADLMEEKFRGDAGLGKLIKIFEDIPTLEDLAETLKKEKLKVKGPALSRKRKKEVDATSPAPSTSSTVKTEGAEATPGAQKRKKSTKEKAGPKGSKVSEEQTQPPSPAGAGMSTAMGRSPSPKTSLSAPPNSSSTENPKTVAKCQVTPRRNVLQKRPVIVKVLSTTKPFEYETPEMEKKIMFHATVATQTQFFHVKVLNTSLKEKFNGKKIIIISDYLEYDSLLEVNEESTVSEAGPNQTFEVPNKIINRAKETLKIDILHKQASGNIVYGVFMLHKKTVNQKTTIYEIQDDRGKMDVVGTGQCHNIPCEEGDKLQLFCFRLRKKNQMSKLISEMHSFIQIKKKTNPRNNDPKSMKLPQEQRQLPYPSEASTTFPESHLRTPQMPPTTPSSSFFTKKSEDTISKMNDFMRMQILKEGSHFPGPFMTSIGPAESHPHTPQMPPSTPSSSFLTTKSEDTISKMNDFMRMQILKEGSHFPGPFMTSIGPAESHPHTPQMPPSTPSSSFLTTLKPRLKTEPEEVSIEDSAQSDLKEVMVLNATESFVYEPKEQKKMFHATVATENEVFRVKVFNIDLKEKFTPKKIIAIANYVCRNGFLEVYPFTLVADVNADRNMEIPKGLIRSASVTPKINQLCSQTKGSFVNGVFEVHKKNVRGEFTYYEIQDNTGKMEVVVHGRLTTINCEEGDKLKLTCFELAPKSGNTGELRSVIHSHIKVIKTRKNKKDILNPDSSMETSPDFFF
modifications: DyLight-550, DyLight-650 or Cy5 fluorophore incorporated by maleimide chemistry; label to protein ratio ~1:1
notes: interferon-inducible protein 16 (IFI16), human, full length; FRET assays mixed DyLight-550 and DyLight-650 labelled protein 1:1; microscopy used Cy5-labelled protein; also called IFI16-550; IFI16-650; source: E. coli T7 express cells (NEB), as described in Morrone et al., 2014
  stoichiometry N: ≥ 8 protomers per cluster
